The numbers were not newly measured in PMC8828474, which cites them from elsewhere.

The data set concerns the target Spike RBD (SARS-CoV-2) (UniProt P0DTC2).

As usually defined, the Kd is the constant that tells how readily two partners part at equilibrium. As for bamlanivimab, the Kd was 0.8 nM.
